Test [1] concerns the target CD3 on Jurkat-Lucia NFAT reporter T lymphocytes (UniProt P07766 23-207). As to the kind of experiment: cell-based or functional assay.
The target in test [2] is T1, antigen on malignant B cell lines (BJAB, Daudi, SUDHL-4, Nalm-6) bound by Mosunetuzumab, not named in the ….
T1 chain: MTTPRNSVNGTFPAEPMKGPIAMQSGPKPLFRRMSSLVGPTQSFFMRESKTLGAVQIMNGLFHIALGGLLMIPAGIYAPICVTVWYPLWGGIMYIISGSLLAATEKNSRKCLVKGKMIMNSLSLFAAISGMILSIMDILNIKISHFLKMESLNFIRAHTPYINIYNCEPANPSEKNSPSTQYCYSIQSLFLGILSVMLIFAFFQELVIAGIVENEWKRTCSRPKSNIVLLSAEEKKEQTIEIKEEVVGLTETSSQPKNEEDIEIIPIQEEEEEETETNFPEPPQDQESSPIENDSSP
As to the kind of experiment: flow cytometry (MFI of PE) on SUDHL-4 cells. As for the experimental part:
(§1) To evaluated the affinities of chCD79b×msnCD3 antibodies to malignant B cell lines. BJAB, Daudi, SUDHL-4 and Nalm-6 cells were purchased from ATCC. For each different cell line, 5×10⁴ cells were mixed with serially diluted antibodies Pola/msnCD3, 22D10/msnCD3, 44G2/msnCD3, 48H10/msnCD3 and 57B9/msnCD3, Mosunetuzumab, and negative control Human IgG Isotype Control (Invitrogen Catalog #02-7102) and incubated on ice for 30 minutes. After incubation, cells were washed twice and detected with an anti-human IgG PE secondary antibody (ebioscience. Cat: 12-4998-82). For analysis, the mean fluorescence intensity (MFI of PE) of each antibody was determined and plotted using GraphPad prism software (version 10.10.1; GraphPad Software Inc).
(In general: A flow cytometer gives signals particle by particle.)

Test [3] deals with T1, antigen on malignant B cell lines …. As to the kind of experiment: flow cytometry (MFI of PE) on Daudi cells. The protocol:
as §1

The target is the same in test [4]. As to the kind of experiment: flow cytometry (MFI of PE) on BJAB cells. The protocol: as §1
Test [5] has as its target T2, CD79b on malignant B cell lines (BJAB, Daudi, SUDHL-4, Nalm-6) (UniProt P40259 29-229, limits assumed).
T2 construct: whole, on cells; also called malignant B cells
T2 sequence (looked up): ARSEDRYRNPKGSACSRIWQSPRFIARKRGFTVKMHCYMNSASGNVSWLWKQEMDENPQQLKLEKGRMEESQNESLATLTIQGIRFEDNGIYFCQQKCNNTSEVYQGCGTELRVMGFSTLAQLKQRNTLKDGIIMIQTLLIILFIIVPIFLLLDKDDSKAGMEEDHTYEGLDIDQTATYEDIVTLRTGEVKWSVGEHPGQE
As to the kind of experiment: flow cytometry (MFI of PE) on SUDHL-4 cells. The protocol:
as §1

Test [6] concerns the target T2, CD79b on malignant B cell lines (BJAB, …). As to the kind of experiment: flow cytometry (MFI of PE) on Daudi cells. The protocol: as §1
The target is the same in test [7]. As to the kind of experiment: flow cytometry (MFI of PE) on BJAB cells. As for the experimental part:
as §1

Test [8] shares this target. As to the kind of experiment: flow cytometry (MFI of PE) on Nalm-6 cells. The protocol: as §1

Broadly, the EC50 is the midpoint of the concentration-response curve. A high value points to weaker potency.

Chain of CD3 on Jurkat-Lucia NFAT reporter T lymphocytes (P07766 23-207): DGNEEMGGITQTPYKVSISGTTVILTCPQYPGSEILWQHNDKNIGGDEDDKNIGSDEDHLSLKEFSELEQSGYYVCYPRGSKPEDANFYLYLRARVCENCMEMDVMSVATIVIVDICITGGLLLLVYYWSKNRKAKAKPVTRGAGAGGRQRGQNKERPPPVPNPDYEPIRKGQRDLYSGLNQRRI

B1: Mosunetuzumab (bispecific antibody)
chain 1: not shown
chain 2: DIQMTQSPSSLSASVGDRVTITCRASSSVSYMHWYQQKPGKAPKPLIYAPSNLASGVPSRFSGSGSGTDFTLTISSLQPEDFATYYCQQWSFNPPTFGQGTKVEIKRTVAAPSVFIFPPSDEQLKSGTASVVCLLNNFYPREAKVQWKVDNALQSGNSQESVTEQDSKDSTYSLSSTLTLSKADYEKHKVYACEVTHQGLSSPVTKSFNRGEC
chain 3: EVQLVQSGAEVKKPGASVKVSCKASGYTFTNYYIHWVRQAPGQGLEWIGWIYPGDGNTKYNEKFKGRATLTADTSTSTAYLELSSLRSEDTAVYYCARDSYSNYYFDYWGQGTLVTVSSASTKGPSVFPLAPSSKSTSGGTAALGCLVKDYFPEPVTVSWNSGALTSGVHTFPAVLQSSGLYSLSSVVTVPSSSLGTQTYICNVNHKPSNTKVDKKVEPKSCDKTHTCPPCPAPELLGGPSVFLFPPKPKDTLMISRTPEVTCVVVDVSHEDPEVKFNWYVDGVEVHNAKTKPREEQYGSTYRVVSVLTVLHQDWLNGKEYKCKVSNKALPAPIEKTISKAKGQPREPQVYTLPPSREEMTKNQVSLSCAVKGFYPSDIAVEWESNGQPENNYKTTPPVLDSDGSFFLVSKLTVDKSRWQQGNVFSCSVMHEALHNHYTQKSLSLSPGK
chain 4: not shown
As to B1, the “T cell activation effect, NFAT-Luc reporter, EC50 nM” value (“T cell activation effect” for short) in test [1] came out at 2.06 nM. Also, the EC50 in test [2] was determined as 30.6 nM; in test [3], 13.7 nM; in test [4] it was 50.4 nM.

B2: Pola/msnCD3 (bispecific antibody, human IgG1, kappa, N297G)
light: DIQLTQSPSSLSASVGDRVTITCKASQSVDYEGDSFLNWYQQKPGKAPKLLIYAASNLESGVPSRFSGSGSGTDFTLTISSLQPEDFATYYCQQSNEDPLTFGQGTKVEIKRTVAAPSVFIFPPSDEQLKSGTASVVCLLNNFYPREAKVQWKVDNALQSGNSQESVTEQDSKDSTYSLSSTLTLSKADYEKHKVYACEVTHQGLSSPVTKSFNRGEC
heavy: EVQLVESGGGLVQPGGSLRLSCAASGYTFSSYWIEWVRQAPGKGLEWIGEILPGGGDTNYNEIFKGRATFSADTSKNTAYLQMNSLRAEDTAVYYCTRRVPIRLDYWGQGTLVTVSSASTKGPSVFPLAPSSKSTSGGTAALGCLVKDYFPEPVTVSWSSGALTSGVHTFPAVLQSSGLYSLSSVVTVPSSSLGTQTYICNVNHKPSNTKVDKKVEPKSCDKTHTCPPCPAPELLGGPSVFLFPPKPKDTLMISRTPEVTCVVVDVSHEDPEVKFNWYVDGVEVHNAKTKPREEQYGSTYRVVSVLTVLHQDWLNGKEYKCKVSNKALPAPIEKTISKAKGQPREPQVYTLPPSRDELTKNQVSLSCAVKGFYPSDIAVEWESNGQPENNYKTTPPVLDSDGSFFLVSKLTVDKSRWQQGNVFSCSVMHEALHNRFTQKSLSLSPGK
chain: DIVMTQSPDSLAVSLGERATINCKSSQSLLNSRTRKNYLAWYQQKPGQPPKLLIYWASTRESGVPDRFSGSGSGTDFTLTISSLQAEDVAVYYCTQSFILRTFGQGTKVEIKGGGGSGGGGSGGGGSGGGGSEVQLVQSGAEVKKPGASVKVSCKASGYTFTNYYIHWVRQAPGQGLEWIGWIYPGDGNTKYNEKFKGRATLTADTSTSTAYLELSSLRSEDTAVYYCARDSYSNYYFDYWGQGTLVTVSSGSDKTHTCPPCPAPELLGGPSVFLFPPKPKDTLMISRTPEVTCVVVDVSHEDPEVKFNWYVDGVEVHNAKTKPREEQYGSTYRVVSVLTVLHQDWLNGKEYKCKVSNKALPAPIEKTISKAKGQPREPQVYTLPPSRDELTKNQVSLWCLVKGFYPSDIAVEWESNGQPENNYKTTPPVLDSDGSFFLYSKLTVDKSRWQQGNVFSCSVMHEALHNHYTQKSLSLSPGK
notes: also called CD79b/CD3 bispecific antibody; chCD79b×msnCD3
Consider B2, for which the “T cell activation effect” value in test [1] was around 15.4 nM. The 50% effective concentration (EC50) is 15.5 nM in test [5], 4.04 nM in test [6] and 18.9 nM in test [7].

B3: 57B9/msnCD3 (bispecific antibody, human IgG1, kappa, N297G)
light: ALVMTQTPSSVSADVGGTVSINCQASEDIESYLAWYQQKPGQPPKLLIYFTSNLASGVPSRFKGSGSGTEYTLTISGVQPDDAATYYCQQGYRNSDVHNPFGGGTEVVVKRTVAAPSVFIFPPSDEQLKSGTASVVCLLNNFYPREAKVQWKVDNALQSGNSQESVTEQDSKDSTYSLSSTLTLSKADYEKHKVYACEVTHQGLSSPVTKSFNRGEC
heavy: QSVRETGGGLVQPGGSLTLSCEASEFTINIDYWISWVRQAPGKGLEWIGIIDPGDGTTYFAIWVNGRFTITRNTNLNTVDLKMTSLTEADTATYFCAREVSASAYQYDLWGPGTLVTVSSASTKGPSVFPLAPSSKSTSGGTAALGCLVKDYFPEPVTVSWSSGALTSGVHTFPAVLQSSGLYSLSSVVTVPSSSLGTQTYICNVNHKPSNTKVDKKVEPKSCDKTHTCPPCPAPELLGGPSVFLFPPKPKDTLMISRTPEVTCVVVDVSHEDPEVKFNWYVDGVEVHNAKTKPREEQYGSTYRVVSVLTVLHQDWLNGKEYKCKVSNKALPAPIEKTISKAKGQPREPQVYTLPPSRDELTKNQVSLSCAVKGFYPSDIAVEWESNGQPENNYKTTPPVLDSDGSFFLVSKLTVDKSRWQQGNVFSCSVMHEALHNRFTQKSLSLSPGK
chain: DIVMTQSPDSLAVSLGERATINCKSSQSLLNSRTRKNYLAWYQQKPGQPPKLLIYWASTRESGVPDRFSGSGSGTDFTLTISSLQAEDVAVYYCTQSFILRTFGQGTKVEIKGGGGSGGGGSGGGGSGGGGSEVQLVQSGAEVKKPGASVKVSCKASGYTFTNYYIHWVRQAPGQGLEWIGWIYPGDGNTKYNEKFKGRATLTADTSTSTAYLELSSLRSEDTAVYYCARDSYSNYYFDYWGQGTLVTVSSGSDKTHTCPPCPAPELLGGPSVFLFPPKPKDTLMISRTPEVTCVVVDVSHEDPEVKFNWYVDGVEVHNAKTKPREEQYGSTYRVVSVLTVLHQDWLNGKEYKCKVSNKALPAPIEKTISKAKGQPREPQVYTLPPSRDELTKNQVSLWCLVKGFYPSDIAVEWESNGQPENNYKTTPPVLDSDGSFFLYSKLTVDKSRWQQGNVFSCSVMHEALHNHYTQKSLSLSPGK
notes: also called 57B9/mscCD3; CD79b/CD3 bispecific antibody
B3: in test [1], the “T cell activation effect” value was around 24 nM. Moreover, the EC50 amounted to 11.9 nM in test [5], 9510 nM in test [8], 4.59 nM in test [6] and 15.1 nM in test [7].

B4: 44G2/msnCD3 (bispecific antibody, human IgG1, kappa, N297G)
light: DLVMTQTPSSVSAAVGGTVSINCRASEDIENYLAWYQQKPGQPPKLLIYRASTLSSGVSSRFSGSGSGTEFTLTISGVQPDDAATYYCQQGYRNSNVDNPFGGGTEMVVKRTVAAPSVFIFPPSDEQLKSGTASVVCLLNNFYPREAKVQWKVDNALQSGNSQESVTEQDSKDSTYSLSSTLTLSKADYEKHKVYACEVTHQGLSSPVTKSFNRGEC
heavy: QSVRETGGGLVQPGGSLKLSCKASGFTINIDYWISWVRQAPGKGLEWIGIIDPGDGTTYFAIWVNGRFTISFDNTQNTVDLQMNSLTAADTATYFCVREFSASAYQYDLWGPGTLVTVSSASTKGPSVFPLAPSSKSTSGGTAALGCLVKDYFPEPVTVSWSSGALTSGVHTFPAVLQSSGLYSLSSVVTVPSSSLGTQTYICNVNHKPSNTKVDKKVEPKSCDKTHTCPPCPAPELLGGPSVFLFPPKPKDTLMISRTPEVTCVVVDVSHEDPEVKFNWYVDGVEVHNAKTKPREEQYGSTYRVVSVLTVLHQDWLNGKEYKCKVSNKALPAPIEKTISKAKGQPREPQVYTLPPSRDELTKNQVSLSCAVKGFYPSDIAVEWESNGQPENNYKTTPPVLDSDGSFFLVSKLTVDKSRWQQGNVFSCSVMHEALHNRFTQKSLSLSPGK
chain: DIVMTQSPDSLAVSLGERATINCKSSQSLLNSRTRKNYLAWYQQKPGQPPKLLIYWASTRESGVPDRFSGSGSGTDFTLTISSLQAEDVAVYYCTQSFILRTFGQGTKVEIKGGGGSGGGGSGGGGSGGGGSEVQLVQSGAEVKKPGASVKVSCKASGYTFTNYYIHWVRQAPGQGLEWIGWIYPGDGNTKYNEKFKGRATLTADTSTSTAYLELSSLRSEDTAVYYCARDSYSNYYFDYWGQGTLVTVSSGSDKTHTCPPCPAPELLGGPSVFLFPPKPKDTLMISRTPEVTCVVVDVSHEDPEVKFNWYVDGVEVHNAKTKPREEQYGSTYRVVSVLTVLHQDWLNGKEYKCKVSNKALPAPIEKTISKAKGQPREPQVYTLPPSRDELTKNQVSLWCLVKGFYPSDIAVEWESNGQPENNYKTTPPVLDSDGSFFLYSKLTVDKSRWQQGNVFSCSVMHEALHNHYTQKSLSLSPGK
notes: as for B2
For B4, the “T cell activation effect” value in test [1] worked out at 1.12 nM. Also, the EC50 in test [5] is 1.73 nM; in test [8] it was 9.53 nM; in test [6], 0.614 nM; in test [7], 4.33 nM.

B5: 48H10/msnCD3 (bispecific antibody, human IgG1, kappa, N297G)
light: ALVMTQTPSSVSAAVGGTVSINCQASEDIESYLTWYQQKPGQPPKLLMYRASTLSSGVSSRFSASGSGTEFTLTISGVQPDDAATYYCQQGYRNKDVDNPFGGGTEVVVKRTVAAPSVFIFPPSDEQLKSGTASVVCLLNNFYPREAKVQWKVDNALQSGNSQESVTEQDSKDSTYSLSSTLTLSKADYEKHKVYACEVTHQGLSSPVTKSFNRGEC
heavy: QSVKETGGGLVQPGGSLTLSCKASGFTINIDYWISWVRQAPGKGLEWIGIIDPGDGTTYFAIWVNGRFTISTDNAQNTVDLQMNSLTAADTATYFCAREFSASAYQYDLWGPGTLVTVSSASTKGPSVFPLAPSSKSTSGGTAALGCLVKDYFPEPVTVSWSSGALTSGVHTFPAVLQSSGLYSLSSVVTVPSSSLGTQTYICNVNHKPSNTKVDKKVEPKSCDKTHTCPPCPAPELLGGPSVFLFPPKPKDTLMISRTPEVTCVVVDVSHEDPEVKFNWYVDGVEVHNAKTKPREEQYGSTYRVVSVLTVLHQDWLNGKEYKCKVSNKALPAPIEKTISKAKGQPREPQVYTLPPSRDELTKNQVSLSCAVKGFYPSDIAVEWESNGQPENNYKTTPPVLDSDGSFFLVSKLTVDKSRWQQGNVFSCSVMHEALHNRFTQKSLSLSPGK
chain: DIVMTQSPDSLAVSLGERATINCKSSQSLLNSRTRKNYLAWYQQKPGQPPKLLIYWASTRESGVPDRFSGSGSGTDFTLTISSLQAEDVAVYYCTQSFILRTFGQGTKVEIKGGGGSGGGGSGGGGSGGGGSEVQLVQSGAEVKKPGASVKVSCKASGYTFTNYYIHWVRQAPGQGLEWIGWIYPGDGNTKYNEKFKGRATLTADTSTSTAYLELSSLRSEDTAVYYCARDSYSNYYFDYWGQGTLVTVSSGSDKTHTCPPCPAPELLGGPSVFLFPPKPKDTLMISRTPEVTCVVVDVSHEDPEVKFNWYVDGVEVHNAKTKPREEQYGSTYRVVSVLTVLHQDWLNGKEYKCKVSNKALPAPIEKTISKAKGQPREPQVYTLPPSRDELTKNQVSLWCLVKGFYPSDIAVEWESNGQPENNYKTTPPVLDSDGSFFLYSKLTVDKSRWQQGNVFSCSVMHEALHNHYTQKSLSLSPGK
notes: as for B2
On to B5, for which the “T cell activation effect” value in test [1] stood at 1.91 nM. The EC50 in test [5] came out at 3.23 nM; in test [8], 19 nM; in test [6] it was 1.28 nM; in test [7], 2.88 nM.

B6: 22D10/msnCD3 (bispecific antibody, human IgG1, kappa, N297G)
light: ALVMTQTPSSVSAAVGGTVTINCRASEDIERYLAWYQQKPGQRPKLLIYGASTLASGVPSRFKGSGSGTEYTLTISGVQPDDAATYYCHQGDSSRNVVNVFGGGTEVVVKRTVAAPSVFIFPPSDEQLKSGTASVVCLLNNFYPREAKVQWKVDNALQSGNSQESVTEQDSKDSTYSLSSTLTLSKADYEKHKVYACEVTHQGLSSPVTKSFNRGEC
heavy: QSVEESGGRLVTPGTPLTLTCTASGFTINDYHMNWVRQAPGKGLEWIGIISSNGDTYYASWAKGRFTISRTSTTVDLKMTSLTTEDTATYFCARDDRDRSYAFDPWGPGTLVTVSSASTKGPSVFPLAPSSKSTSGGTAALGCLVKDYFPEPVTVSWSSGALTSGVHTFPAVLQSSGLYSLSSVVTVPSSSLGTQTYICNVNHKPSNTKVDKKVEPKSCDKTHTCPPCPAPELLGGPSVFLFPPKPKDTLMISRTPEVTCVVVDVSHEDPEVKFNWYVDGVEVHNAKTKPREEQYGSTYRVVSVLTVLHQDWLNGKEYKCKVSNKALPAPIEKTISKAKGQPREPQVYTLPPSRDELTKNQVSLSCAVKGFYPSDIAVEWESNGQPENNYKTTPPVLDSDGSFFLVSKLTVDKSRWQQGNVFSCSVMHEALHNRFTQKSLSLSPGK
chain: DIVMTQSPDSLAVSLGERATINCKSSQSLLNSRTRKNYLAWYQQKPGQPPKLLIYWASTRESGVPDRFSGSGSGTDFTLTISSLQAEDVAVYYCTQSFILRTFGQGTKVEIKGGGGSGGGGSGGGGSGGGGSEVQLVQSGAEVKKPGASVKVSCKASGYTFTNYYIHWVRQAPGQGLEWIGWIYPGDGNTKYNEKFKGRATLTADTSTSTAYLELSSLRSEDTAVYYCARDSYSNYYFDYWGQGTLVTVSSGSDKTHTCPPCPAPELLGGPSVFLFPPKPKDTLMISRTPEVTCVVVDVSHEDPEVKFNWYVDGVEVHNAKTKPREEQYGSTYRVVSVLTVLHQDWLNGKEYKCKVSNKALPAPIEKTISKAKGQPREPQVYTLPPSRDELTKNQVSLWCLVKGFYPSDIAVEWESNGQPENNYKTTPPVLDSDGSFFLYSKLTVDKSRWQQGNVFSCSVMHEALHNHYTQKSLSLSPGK
notes: as for B2
As for B6, the “T cell activation effect” value in test [1] is 866 nM. Besides, the EC50 in test [6] worked out at 17.1 nM; in test [7], 1.24 nM.

For the origin of these results see patent US20250304679A1 (LTZ THERAPEUTICS, published 2025).
